T1: AP2-LT D1 (Plasmodium falciparum, UniProt Q8IAM1 2520-2577)
T1 sequence: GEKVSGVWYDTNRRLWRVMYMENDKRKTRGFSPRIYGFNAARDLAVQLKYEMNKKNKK

B1: CACACA_negctrl_site333 (dsDNA)
DNA 1: GAATGAATGATAAATTTTTTTTTCTTTTTTTTTTTG
DNA 2: CAAAAAAAAAAAGAAAAAAAAATTTATCATTCATTC
B2: CACACA_negctrl_site8 (dsDNA)
DNA 1: AAATTATATATAATAAATAATTTCTTTTTCTAAAAG
DNA 2: CTTTTAGAAAAAGAAATTATTTATTATATATAATTT
B3: CACACA_negctrl_site775 (dsDNA)
DNA 1: TTGTATCTTCATTTTATCAGAAAAAAAAAAAAAAAT
DNA 2: ATTTTTTTTTTTTTTTCTGATAAAATGAAGATACAA
B4: CACACA_negctrl_site861 (dsDNA)
DNA 1: TTTTAAAAATTAAAAAAATTAAATGTAAAAAAATGA
DNA 2: TCATTTTTTTACATTTAATTTTTTTAATTTTTAAAA
B5: CACACA_negctrl_site1012 (dsDNA)
DNA 1: ATAATTTCTATTTCACAAAAAAAAAAAAAAAAAAAA
DNA 2: TTTTTTTTTTTTTTTTTTTTGTGAAATAGAAATTAT
B6: CACACA_negctrl_site442 (dsDNA)
DNA 1: TGGTTTCAATAATTAATAAAATATATTATTGTGAAA
DNA 2: TTTCACAATAATATATTTTATTAATTATTGAAACCA
B7: CACACA_negctrl_site1281 (dsDNA)
DNA 1: TAAAATTAAATGAAATCATTATTCATTTTTATTTTA
DNA 2: TAAAATAAAAATGAATAATGATTTCATTTAATTTTA
B8: CACACA_negctrl_site159 (dsDNA)
DNA 1: TTTTTTTATTATTCTTATATAAAAATTTTTTTTAAT
DNA 2: ATTAAAAAAAATTTTTATATAAGAATAATAAAAAAA
B9: CACACA_negctrl_site797 (dsDNA)
DNA 1: AAATGTATAATTTTTTAATACACTTATTTAAAATAA
DNA 2: TTATTTTAAATAAGTGTATTAAAAAATTATACATTT
B10: CACACA_negctrl_site1467 (dsDNA)
DNA 1: TTATATAATGACAAAAAAAAAAAAAAAAAAAAAAAA
DNA 2: TTTTTTTTTTTTTTTTTTTTTTTTGTCATTATATAA
B11: CACACA_negctrl_site473 (dsDNA)
DNA 1: TATTTAATTATATAAAATTAAATTTTTAATTCTTCC
DNA 2: GGAAGAATTAAAAATTTAATTTTATATAATTAAATA
B12: CACACA_negctrl_site65 (dsDNA)
DNA 1: ATTAAAAATTATATTTTATAAAAATTAAAAGAAATA
DNA 2: TATTTCTTTTAATTTTTATAAAATATAATTTTTAAT
B13: CACACA_negctrl_site82 (dsDNA)
DNA 1: TTTTGTTTCTATATAAGATGGAAATATAAACTTGTA
DNA 2: TACAAGTTTATATTTCCATCTTATATAGAAACAAAA
B14: CACACA_negctrl_site169 (dsDNA)
DNA 1: TTATTTCTTCAGAAAAAATTAAAAAATTAAACAATA
DNA 2: TATTGTTTAATTTTTTAATTTTTTCTGAAGAAATAA
B15: CACACA_negctrl_site1598 (dsDNA)
DNA 1: TATTTTAACATGTTTTCAAAAATAAAACATATAAAT
DNA 2: ATTTATATGTTTTATTTTTGAAAACATGTTAAAATA
B16: CACACA_negctrl_site1791 (dsDNA)
DNA 1: TTTTAAAAAAAAAAAATAAATAAATAAGATATTATC
DNA 2: GATAATATCTTATTTATTTATTTTTTTTTTTTAAAA
B17: CACACA_negctrl_site941 (dsDNA)
DNA 1: ATATTACGCACAAAAAAAAAAAAAAAAAAAAAAAAA
DNA 2: TTTTTTTTTTTTTTTTTTTTTTTTTGTGCGTAATAT
B18: CACACA_negctrl_site624 (dsDNA)
DNA 1: TTATAATAAATATTCATATGTTCAAATATATATATA
DNA 2: TATATATATATTTGAACATATGAATATTTATTATAA
B19: CACACA_negctrl_site213 (dsDNA)
DNA 1: ATAAATATATGGTTTCATTATATTAAATTCAATTTA
DNA 2: TAAATTGAATTTAATATAATGAAACCATATATTTAT
B20: CACACA_negctrl_site1228 (dsDNA)
DNA 1: ATATTTTGGGGACTTTTTAAAAAAGAAGTATTAAAA
DNA 2: TTTTAATACTTCTTTTTTAAAAAGTCCCCAAAATAT
B21: CACACA_negctrl_site90 (dsDNA)
DNA 1: TTATAATATATATAAAAGAAAAAAAATTATAATATA
DNA 2: TATATTATAATTTTTTTTCTTTTATATATATTATAA
B22: CACACA_negctrl_site154 (dsDNA)
DNA 1: TTTTAAAAAATATAATATAATATAATATAAAATAAA
DNA 2: TTTATTTTATATTATATTATATTATATTTTTTAAAA
B23: CACACA_negctrl_site152 (dsDNA)
DNA 1: TTTTAAATAATTCGTAATTATAATTATGGAAAAAAG
DNA 2: CTTTTTTCCATAATTATAATTACGAATTATTTAAAA
B24: CACACA_negctrl_site466 (dsDNA)
DNA 1: ATAAAAGAATTAAATAATCAAAATGATTATTTTATA
DNA 2: TATAAAATAATCATTTTGATTATTTAATTCTTTTAT
B25: CACACA_negctrl_site1402 (dsDNA)
DNA 1: TTATTATTCTTAAGGATATAACAAAAAAGAAAAATT
DNA 2: AATTTTTCTTTTTTGTTATATCCTTAAGAATAATAA
B26: CACACA_negctrl_site87 (dsDNA)
DNA 1: TCTTTCTAAATCTTACAAATTACTAAAATATTTATA
DNA 2: TATAAATATTTTAGTAATTTGTAAGATTTAGAAAGA
B27: CACACA_negctrl_site1262 (dsDNA)
DNA 1: ATATAAAGAAATTAATTTTTCAACAATAAAAATATA
DNA 2: TATATTTTTATTGTTGAAAAATTAATTTCTTTATAT
B28: CACACA_negctrl_site575 (dsDNA)
DNA 1: TATTTACAAAAAAAATATAAAAAATATAAAATATAT
DNA 2: ATATATTTTATATTTTTTATATTTTTTTTGTAAATA
B29: CACACA_negctrl_site1036 (dsDNA)
DNA 1: ATATTGTATTATCTTTATGTACCAAAAAAAAAAAAA
DNA 2: TTTTTTTTTTTTTGGTACATAAAGATAATACAATAT
B30: CACACA_negctrl_site731 (dsDNA)
DNA 1: TCTAAACAAATTAATAAAATAAGTATTCAAAATTAT
DNA 2: ATAATTTTGAATACTTATTTTATTAATTTGTTTAGA
B31: CACACA_negctrl_site970 (dsDNA)
DNA 1: ATATTTTTATGTACTTCAAAAAAAAAGAAAAACAAA
DNA 2: TTTGTTTTTCTTTTTTTTTGAAGTACATAAAAATAT
B32: CACACA_negctrl_site427 (dsDNA)
DNA 1: TTTATAAATTCTCTTTTTAAAAAATATTTTTATACT
DNA 2: AGTATAAAAATATTTTTTAAAAAGAGAATTTATAAA
B33: CACACA_negctrl_site80 (dsDNA)
DNA 1: TTTAATAAATAAATAAATAAAATATATTAAAAACCA
DNA 2: TGGTTTTTAATATATTTTATTTATTTATTTATTAAA
B34: CACACA_negctrl_site651 (dsDNA)
DNA 1: TTTGGAAAGCGTGATTTTTGACAAACACAAAAAAAA
DNA 2: TTTTTTTTGTGTTTGTCAAAAATCACGCTTTCCAAA
B35: CACACA_negctrl_site801 (dsDNA)
DNA 1: GATTTATATATATAAAATAATTGAATATTTTCTTTT
DNA 2: AAAAGAAAATATTCAATTATTTTATATATATAAATC
B36: CACACA_negctrl_site1736 (dsDNA)
DNA 1: ATTGAAAATTATTTACCTTCTTTGAAAGAACAAATG
DNA 2: CATTTGTTCTTTCAAAGAAGGTAAATAATTTTCAAT
B37: CACACA_negctrl_site945 (dsDNA)
DNA 1: ATATAAATAAATTAGTGAAAAAAAAAAAATTTTTTT
DNA 2: AAAAAAATTTTTTTTTTTTCACTAATTTATTTATAT
B38: CACACA_negctrl_site1344 (dsDNA)
DNA 1: TTATGTATTCATTTTTTTTAAGCACCCCAAAATGAT
DNA 2: ATCATTTTGGGGTGCTTAAAAAAAATGAATACATAA
B39: CACACA_negctrl_site1724 (dsDNA)
DNA 1: TTTTTCTTTTTTTTTTTAATAATATATAACAAATTT
DNA 2: AAATTTGTTATATATTATTAAAAAAAAAAAGAAAAA
B40: CACACA_negctrl_site1416 (dsDNA)
DNA 1: TTTTTTGTACCAAAAAAAAAAAAAAGAAAAAAAAAC
DNA 2: GTTTTTTTTTCTTTTTTTTTTTTTTGGTACAAAAAA
B41: CACACA_negctrl_site918 (dsDNA)
DNA 1: TTTTTTTTTTCTTTTTTTCTCATGAAATTCTAAATG
DNA 2: CATTTAGAATTTCATGAGAAAAAAAGAAAAAAAAAA
B42: CACACA_negctrl_site454 (dsDNA)
DNA 1: TATTGTAATATTATATATATCTATTATGTATATAAA
DNA 2: TTTATATACATAATAGATATATATAATATTACAATA
B43: CACACA_negctrl_site1335 (dsDNA)
DNA 1: TAAAATTTTAACAAAAAAAAAAAAAAAAAAAGAAAA
DNA 2: TTTTCTTTTTTTTTTTTTTTTTTTGTTAAAATTTTA
B44: CACACA_negctrl_site1813 (dsDNA)
DNA 1: TTTTTATTCGATGATCAAATAGGTATATACAAAAAA
DNA 2: TTTTTTGTATATACCTATTTGATCATCGAATAAAAA

Molecular target: T1, AP2-LT D1
Test: gcPBM; about 25 ug protein; PBS, 1% milk, 0.2 mg/ml BSA, salmon testes DNA, 0.03% Triton X-100
Conditions: tags: N-terminal GST (pGEX-4T-1), kept; label: surface-attached array probe

Binder | binding signal
B1 | 8.4 ln median PBM intensity, better of two orientations
B2 | 8.42 ln median PBM intensity, better of two orientations
B3 | 8.43 ln median PBM intensity, better of two orientations
B4 | 8.44 ln median PBM intensity, better of two orientations
B5 | 8.47 ln median PBM intensity, better of two orientations
B6 | 8.47 ln median PBM intensity, better of two orientations
B7 | 8.47 ln median PBM intensity, better of two orientations
B8 | 8.48 ln median PBM intensity, better of two orientations
B9 | 8.49 ln median PBM intensity, better of two orientations
B10 | 8.49 ln median PBM intensity, better of two orientations
B11 | 8.5 ln median PBM intensity, better of two orientations
B12 | 8.5 ln median PBM intensity, better of two orientations
B13 | 8.52 ln median PBM intensity, better of two orientations
B14 | 8.53 ln median PBM intensity, better of two orientations
B15 | 8.55 ln median PBM intensity, better of two orientations
B16 | 8.55 ln median PBM intensity, better of two orientations
B17 | 8.56 ln median PBM intensity, better of two orientations
B18 | 8.56 ln median PBM intensity, better of two orientations
B19 | 8.57 ln median PBM intensity, better of two orientations
B20 | 8.57 ln median PBM intensity, better of two orientations
B21 | 8.58 ln median PBM intensity, better of two orientations
B22 | 8.59 ln median PBM intensity, better of two orientations

Binder | binding signal
B23 | 8.59 ln median PBM intensity, better of two orientations
B24 | 8.6 ln median PBM intensity, better of two orientations
B25 | 8.6 ln median PBM intensity, better of two orientations
B26 | 8.61 ln median PBM intensity, better of two orientations
B27 | 8.61 ln median PBM intensity, better of two orientations
B28 | 8.62 ln median PBM intensity, better of two orientations
B29 | 8.63 ln median PBM intensity, better of two orientations
B30 | 8.64 ln median PBM intensity, better of two orientations
B31 | 8.64 ln median PBM intensity, better of two orientations
B32 | 8.65 ln median PBM intensity, better of two orientations
B33 | 8.65 ln median PBM intensity, better of two orientations
B34 | 8.66 ln median PBM intensity, better of two orientations
B35 | 8.66 ln median PBM intensity, better of two orientations
B36 | 8.67 ln median PBM intensity, better of two orientations
B37 | 8.67 ln median PBM intensity, better of two orientations
B38 | 8.67 ln median PBM intensity, better of two orientations
B39 | 8.68 ln median PBM intensity, better of two orientations
B40 | 8.68 ln median PBM intensity, better of two orientations
B41 | 8.68 ln median PBM intensity, better of two orientations
B42 | 8.69 ln median PBM intensity, better of two orientations
B43 | 8.69 ln median PBM intensity, better of two orientations
B44 | 8.69 ln median PBM intensity, better of two orientations

Source: publication PMC11417369, “DNA sequence and chromatin differentiate sequence-specific transcription factor binding in the human malaria parasite Plasmodium falciparum”
